Molecular target: hnRNP C1 (UniProt P07910-2 1-293)
Assay: filter binding

Q: AACUUAAUGUUUUUGCAUUGGUCUUUGAGUUA (structured_RNA) [MALAT1 2,577-U] was tested. Which binding signal did it give?
A: The binding signal was ~4 fold stronger than N1.
